Here are results for one substance from paper PMC6820532.

The target of the experiment is I-Aα^d chain fused to the human IgG1 Fc knob (non-zippered KIH-based BDC2.5mi/IA^g7, α chain) (mouse | human). The experiment is described as follows: SDS stability on SDS-PAGE; 12% SDS-PAGE of the purified, co-expressed heterodimers; 0.83% SDS, left unboiled ('native') or boiled (100 °C for 5 min); fully denaturing with 20 mM β2-ME.

“BDC2.5mi peptide tethered to the I-Aβ^g7 chain fused to the human IgG1 Fc hole (non-zippered KIH-based BDC2.5mi/IA^g7, β chain) (Fc fusion)” came in with a stoichiometry N of 1.
